Eleven molecules from paper PMC5552345 (PLoS Pathogens, 2017) can be followed below.

Assay [1] deals with T1, (NANP)6 peptide (Plasmodium falciparum CSP repeat, …).
T1 construct: printed as (NANP)6, written out here; a short segment of the antigenic NANP-repeat region of P. falciparum CSP; also called synthetic peptide antigen (NANP)6; source: synthetic peptide
T1 chain: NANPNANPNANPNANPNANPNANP
Description: ITC; 25°C; titration of 2A10 FAB or complete 2A10 with antigen; independent binding sites model; single titration each. Conditions: both partners purified.

Assay [2] addresses T2, (NANP)9 peptide (Plasmodium falciparum CSP repeat, …).
T2 construct: printed as (NANP)9, written out here; NANP repeat of P. falciparum CSP
T2 chain: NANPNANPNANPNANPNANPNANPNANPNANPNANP
Description: ELISA; recombinant 2A10, germline precursor, hybrids and their point mutants tested on the (NANP)9 peptide; details in S1 Methods.

Where a chain is given by its changes, count along the chain named. Names and notes keep the numbering of the source.

B1: 2A10 antigen-binding fragment (FAB) (Fab, V domains shown)
VH: QIQLVQSGPELKKPGETVKISCKASGYTFTNYGINWVKQAPGKGLKWMGWINTITEEPTFAEEFTGRFAFSLETSASTAYLQINNLKNEDTATYFCARGSEFGRLVYWGQGASVTVSS
VL: DIQMTQTTSSLSASLGDRVTISCSASQGISNYLNWYQQKPDGTVKLLIFYTSTLYSGVPSRFSGSGSGTDYSLTISNLEPEDIATYYCQQYSRFPYVFGGGTKLEIK
notes: heavy chain part of the 2A10 FAB; as the heavy chain of m1; light chain of the 2A10 FAB; as the light chain of m1; also called 2A10 FAB; 2A10 FAB fragment; source: purified
As to B1, in assay [1], the Ka was 2.37e+06 M⁻¹, the Kd was 420 nM, the dH was -113 kJ/mol complex and the “stoichiometry N” value was determined as 2.16 FAB per Ag.

B2: 2A10 gAb with light chain L114F (antibody, V domains shown)
VH: B1 VH with I34M, I54N, E56G, F60Y, T65K, V106D
VL: B1 VL with F49Y, T53S, Y55H, R93K, V97T
notes: as the heavy chain of m17 (gHC); as the light chain of m17 (gLC); source: HEK293T cells, expressed
On to B2, for which the binding result in assay [2] is on record as “binds”.

B3: predicted germline precursor to the 2A10 antibody (2A10 gAb) (antibody, V domains shown)
VH: B1 VH with I34M, I54N, E56G, F60Y, T65K, V106D
VL: B1 VL with F49Y, T53S, Y55H, R93K, F94L, V97T
notes: predicted germline heavy chain (gHC) of 2A10 by V-quest; the 2A10 heavy chain carries 6 mutations against it; predicted germline light chain (gLC) of 2A10 by V-quest; the 2A10 light chain carries 7 mutations against it; also called gHC + gLC; source: HEK293T cells, expressed
Take B3: in assay [2], the binding result was “binds”.

B4: 2A10 gAb with light chain L114F and T117V (antibody, V domains shown)
VH: B1 VH with I34M, I54N, E56G, F60Y, T65K, V106D
VL: B1 VL with F49Y, T53S, Y55H, R93K
notes: as the heavy chain of m17 (gHC); as the light chain of m17 (gLC); also called L114F and T117V introduced simultaneously; source: HEK293T cells, expressed
With B4, the binding result in assay [2] was “binds”.

B5: 2A10 gAb with light chain T117V (antibody, V domains shown)
VH: B1 VH with I34M, I54N, E56G, F60Y, T65K, V106D
VL: B1 VL with F49Y, T53S, Y55H, R93K, F94L
notes: as for B2
For B5, the binding result in assay [2] was “binds”.

B6: hybrid antibody mLC + gHC with heavy chain N59I (antibody, V domains shown)
VH: B1 VH with I34M, E56G, F60Y, T65K, V106D
VL: B1 VL
notes: as the heavy chain of m17 (gHC); as the light chain of m7; source: HEK293T cells, expressed
Take B6: in assay [2], the binding result was “binds”.

B7: 2A10 gAb with light chain H68Y (antibody, V domains shown)
VH: B1 VH with I34M, I54N, E56G, F60Y, T65K, V106D
VL: B1 VL with F49Y, T53S, R93K, F94L, V97T
notes: as for B2
With B7, the binding result in assay [2] is reported as “binds”.

B8: recombinant antibody corresponding to the 2A10 mAb (antibody, V domains shown)
VH: B1 VH
VL: B1 VL
notes: 2A10 heavy chain (mHC), as the heavy chain of m1; FAB part in the deposited structures; 2A10 light chain (mLC), as the light chain of m1; in the deposited structures; also called mHC + mLC; source: HEK293T cells, expressed
Regarding B8, the binding result in assay [2] is “binds”.

B9: hybrid antibody mLC + gHC with heavy chain T67F (antibody, V domains shown)
VH: B1 VH with I34M, I54N, E56G, T65K, V106D
VL: B1 VL
notes: as for B6
As to B9, the binding result in assay [2] is “binds”.

B10: hybrid antibody: 2A10 light chain (mLC) paired with germline heavy chain (gHC) (antibody, V domains shown)
VH: B1 VH with I34M, I54N, E56G, F60Y, T65K, V106D
VL: B1 VL
notes: as the heavy chain of m17 (gHC); as the light chain of m7; also called mLC + gHC; source: HEK293T cells, expressed
B10: the binding result in assay [2] is “binds”.

B11: hybrid antibody mLC + gHC with heavy chain M39I (antibody, V domains shown)
VH: B1 VH with I54N, E56G, F60Y, T65K, V106D
VL: B1 VL
notes: as for B6
As to B11, in assay [2], the binding result is “binds”.

For orientation: Kd means the free concentration of one partner at which half of the binding sites on the other are occupied at equilibrium, for simple one-to-one binding. Read a low Kd as higher affinity. For orientation: stoichiometry N means a count of units in the complex or per binding partner.
